Values belong to the binder of their own block, whether it stands above or below them.
Biological target: T1, CEACAM5 (R&D Systems, 4128-CM-050) (human, UniProt P06731 35-685)
T1 construct: Immobilised on the ELISA plate; also called human CEACAM5
T1 sequence (looked up): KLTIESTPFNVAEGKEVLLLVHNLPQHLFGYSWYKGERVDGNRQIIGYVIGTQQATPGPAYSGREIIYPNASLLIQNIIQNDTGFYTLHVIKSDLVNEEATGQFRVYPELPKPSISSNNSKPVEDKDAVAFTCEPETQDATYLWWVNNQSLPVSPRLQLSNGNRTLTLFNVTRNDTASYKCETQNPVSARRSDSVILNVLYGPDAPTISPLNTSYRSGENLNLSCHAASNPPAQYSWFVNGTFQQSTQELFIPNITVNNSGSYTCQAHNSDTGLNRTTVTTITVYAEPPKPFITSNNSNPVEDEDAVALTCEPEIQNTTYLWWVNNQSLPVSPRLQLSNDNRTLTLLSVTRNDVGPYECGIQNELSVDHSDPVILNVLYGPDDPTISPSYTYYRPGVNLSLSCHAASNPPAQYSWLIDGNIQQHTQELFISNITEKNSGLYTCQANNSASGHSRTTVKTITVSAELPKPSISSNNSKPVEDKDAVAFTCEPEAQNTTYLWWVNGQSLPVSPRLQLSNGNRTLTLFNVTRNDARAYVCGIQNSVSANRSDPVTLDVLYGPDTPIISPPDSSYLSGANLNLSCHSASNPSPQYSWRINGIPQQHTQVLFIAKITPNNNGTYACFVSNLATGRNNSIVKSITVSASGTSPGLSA
Experiment: ELISA on immobilised CEACAM5, 4-parameter fit, duplicate
Procedure: Each anti-human CEACAM5 antibody Fab fragment conjugate prepared in Example 2 was subjected to ELISA to evaluate the binding activity thereof to CEACAM5. In the present test, a phosphate buffer (Nacalai Tesque Inc., 0.1 mol/L-Phosphate Buffer Solution (pH 7.2)) prepared to 10 mM by diluting 10-fold with distilled water was used as a solvent for an antigen immobilization liquid, and 20×PBS/Tween 20 Buffer (Thermo Fisher Scientific Inc., 28352) diluted 20-fold with distilled water was used as a wash liquid. In addition, for bovine serum albumin (BSA) used in the present test, 30% Bovine Serum Albumin solution (Sigma-Aldrich, Inc., A9576-50ML) was added in an appropriate proportion for use. CEACAM5 (R&D Systems, 4128-CM-050) was diluted with a 10 mM phosphate buffer (pH 7.2) to 0.1 μg/mL, and added to a Nunc MaxiSorp White 384 plate (Nunc, 4603272) at 30 μL per well, and the plate was incubated overnight at 4° C. for immobilization. The CEACAM5 immobilization liquid was removed by reverse centrifugation, and then blocking was carried out by adding a PBS/Tween 20 buffer containing 5.0% BSA. Thereafter, the blocking solution was removed by reverse centrifugation, a solution of each CEACAM5 antibody Fab² fragment conjugate described above or a Fab² fragment having no labeling portion (PB009-01) as a control at about 10000 ng/mL was diluted in 14 steps by 3-fold dilution using a PBS/Tween 20 buffer containing 1.0% BSA, and 30 μL was added per well and incubated at room temperature for 60 minutes. The plate was washed 3 times with a PBS/Tween 20 buffer, and Horseradish Peroxidase (HRP)-labeled goat anti-human IgG (H+L chain) antibody (MBL Life Sciences, 206) diluted 1000-fold using a PBS/Tween 20 buffer containing 5.0% BSA was added at 30 μL per well and incubated at room temperature for 30 minutes. The plate was washed 3 times with a PBS/Tween 20 buffer, and ECL Prime Western Blotting DETECTION Reagent (GE Healthcare, RPN2232) as a substrate was added at 30 μL per well. The substrate was incubated at room temperature for 15 minutes, and then a signal value thereof was measured using an Envision counter (PerkinElmer, Inc.).
The test for each antibody was carried out in duplicate, and an EC₅₀ value was calculated using a 4-parameter logistic curve model.

EC50: 0.24 nM
B4: [Gd/DOTA-NH-CH2-(1,4-Ph)-NH-C(═O)-Met-Ile-NH-(CH2)2-Z1(#N)]p-Fab^2 (Fab, V domains shown)
VH: EVQLVESGGGLVQPGGSLRLSCAASGFNIRDTYMHWVRQAPGKGLEWVARIDPANGNSRYVPKFQGRFTISADTSRNTAYLQMNSLRAEDTAVYYCAPFGYYVSDYAMAYWGQGTLVTVSS
VL: DIQLTQSPSSLSASVGDRVTITCRAGESVDIFGVGFLHWYQQKPGKAPKLLIYRASNLESGIPSRFSGSGSRTDFTLTISSLQPEDFATYYCQQTNEDPYTFGQGTKVEIKR
modifications: labeling may sit on this chain; sites not stated; labeling portion (MW 1074) on amino groups of the Fab, sites and chain not stated; 1-3 per Fab by MS
notes: also called Ex-No 18; Conjugate No. 18

EC50: 0.25 nM
B5: [Gd/DOTA-NH-CH2-(1,3-Ph)-C(═O)-Met-Gly-Lys*-Z2(#S)]p-Fab^2 (Fab, V domains shown)
VH: B4 VH
VL: B4 VL
modifications: labeling may sit on this chain; sites not stated; labeling portion (MW 1190) bound via 2-iminothiolane-treated amino groups of the Fab, sites and chain not stated; 1-2 per Fab by MS
notes: also called Ex-No 24; Conjugate No. 24

EC50: 0.3 nM
B7: [Gd/DOTA-NH-(CH2CH2O)3-CH2-C(═O)-NH-CH2-(1,3-Ph)-C(═O)-Met-Gly-Lys*-Z2(#N)]p-Fab^2 (Fab, V domains shown)
VH: B4 VH
VL: B4 VL
modifications: labeling may sit on this chain; sites not stated; labeling portion (MW 1278) on amino groups of the Fab, sites and chain not stated; 1-2 per Fab by MS
notes: also called Ex-No 29; Conjugate No. 29

EC50: 0.3 nM
B11: (Y-S1-X)p-Fab^2 with Y Gd/DOTA, S1 spacer (d), X -Gly-Lys*-Z2(#N)- (Fab, V domains shown)
VH: B4 VH
VL: B4 VL
modifications: labeling may sit on this chain; sites not stated; labeling portion (MW 954) on amino groups of the Fab, sites and chain not stated; 1-3 per Fab by MS
notes: also called Ex-No 26; conjugate 26

EC50: 0.33 nM
B12: (Y-S1-X)p-Fab^2 with Y Gd/DOTA, S1 spacer (a), X -Gly-Lys*-Z2(#N)- (Fab, V domains shown)
VH: B4 VH
VL: B4 VL
modifications: labeling may sit on this chain; sites not stated; labeling portion (MW 936) on amino groups of the Fab, sites and chain not stated; 1-3 per Fab by MS
notes: also called Ex-No 23; conjugate 23

EC50: 0.14 nM
B14: [Gd/DOTA-NH-CH2-(1,3-Ph)-C(═O)-Met-Gly-Lys*-Z2(#N)]p-Fab^2 (Fab, V domains shown)
VH: B4 VH
VL: B4 VL
modifications: labeling may sit on this chain; sites not stated; labeling portion (MW 1089) on amino groups of the Fab, sites and chain not stated; 1-3 per Fab by MS
notes: also called Ex-No 13; Conjugate No. 13

EC50: 0.22 nM
B17: [Gd/4arm-DOTA-CH2-(1,4-Ph)-NH-C(═S)-NH-CH2-(1,3-Ph)-C(═O)-Met-Gly-Lys*-Z2(#S)]p-Fab^2 (Fab, V domains shown)
VH: B4 VH
VL: B4 VL
modifications: labeling may sit on this chain; sites not stated; labeling portion (MW 1355) bound via 2-iminothiolane-treated amino groups of the Fab, sites and chain not stated; 1-2 per Fab by MS
notes: also called Ex-No 40; Conjugate No. 40

Second part, the binder before the results:

B1: (Y-S1-X)p-Fab^2 with Y Gd/DOTA, S1 -NH-CH2-(1,3-Ph)-C(═O)-, X -Gly-Lys*-Z2(#S)- (Fab, V domains shown)
VH: B4 VH
VL: B4 VL
modifications: labeling may sit on this chain; sites not stated; labeling portion (MW 1059) on amino groups of the Fab, sites and chain not stated; 1-2 per Fab by MS
notes: also called Ex-No 6; conjugate 6
EC50: 0.14 nM

B2: (Y-S1-X)p-Fab^2 with Y Gd/DOTA, S1 - (bond), X -Gly-Tyr*-CH2-C(═O)-NH-(CH2)2-Z1(#S)- (Fab, V domains shown)
VH: B4 VH
VL: B4 VL
modifications: labeling may sit on this chain; sites not stated; labeling portion (MW 1061) on amino groups of the Fab, sites and chain not stated; 1-3 per Fab by MS
notes: also called Ex-No 7; conjugate 7
EC50: 0.17 nM

B3: (Y-S1-X)p-Fab^2 with Y Gd/DOTA, S1 -NH-(CH2CH2O)3-CH2-C(═O)-NH-CH2-(1,3-Ph)-C(═O)-, X -Gly-Tyr*-CH-C(═O)-NH-(CH2)2-Z1(#S) (Fab, V domains shown)
VH: B4 VH
VL: B4 VL
modifications: labeling may sit on this chain; sites not stated; labeling portion (MW 1384) on amino groups of the Fab, sites and chain not stated; 1-3 per Fab by MS
notes: also called Ex-No 39; conjugate 39
EC50: 0.2 nM

B6: (Y-S1-X)p-Fab^2 with Y Gd/DOTA, S1 given only as drawing CHEM-US-00151, X -Met-Gly-Lys*-Z2(#N)- (Fab, V domains shown)
VH: B4 VH
VL: B4 VL
modifications: labeling may sit on this chain; sites not stated; labeling portion (MW 1101) on amino groups of the Fab, sites and chain not stated; 1-2 per Fab by MS
notes: also called Ex-No 34; conjugate 34
EC50: 0.38 nM

B8: (Y-S1-X)p-Fab^2 with Y Gd/DOTA, S1 -NH-CH2-(1,3-Ph)-C(═O)-, X -Gly-Tyr*-CH2-C(═O)-NH-(CH2)2-Z1(#N)- (Fab, V domains shown)
VH: B4 VH
VL: B4 VL
modifications: labeling may sit on this chain; sites not stated; labeling portion (MW 1093) on amino groups of the Fab, sites and chain not stated; 1-3 per Fab by MS
notes: also called Ex-No 14; conjugate 14
EC50: 0.13 nM

B9: (Y-S1-X)p-Fab^2 with Y Gd/DOTA, S1 - (bond), X -Met-Ile-Lys*-Z2(#N)- (Fab, V domains shown)
VH: B4 VH
VL: B4 VL
modifications: labeling may sit on this chain; sites not stated; labeling portion (MW 1012) on amino groups of the Fab, sites and chain not stated; 1-2 per Fab by MS
notes: also called Ex-No 10; conjugate 10
EC50: 0.11 nM

B10: (Y-S1-X)p-Fab^2 with Y Gd/DOTA, S1 - (bond), X -Gly-Tyr-Lys*-Z2(#N)- (Fab, V domains shown)
VH: B4 VH
VL: B4 VL
modifications: labeling may sit on this chain; sites not stated; labeling portion (MW 988) on amino groups of the Fab, sites and chain not stated; 1-4 per Fab by MS
notes: also called Ex-No 19; conjugate 19
EC50: 0.26 nM

B13: (Y-S1-X)p-Fab^2 with Y Gd/DOTA, S1 - (bond), X -Met-Ile-NH-(CH2)2-Z1(#S)- (Fab, V domains shown)
VH: B4 VH
VL: B4 VL
modifications: labeling may sit on this chain; sites not stated; labeling portion (MW 1027) on amino groups of the Fab, sites and chain not stated; 1-2 per Fab by MS
notes: also called Ex-No 8; conjugate 8
EC50: 0.11 nM

B15: (Y-S1-X)p-Fab^2 with Y Gd/DOTA, S1 -NH-CH2-(1,3-Ph)-C(═O)-, X -Gly-Lys*-Z2(#N)- (Fab, V domains shown)
VH: B4 VH
VL: B4 VL
modifications: labeling may sit on this chain; sites not stated; labeling portion (MW 958) on amino groups of the Fab, sites and chain not stated; 1-3 per Fab by MS
notes: also called Ex-No 9; conjugate 9
EC50: 0.1 nM

B16: (Y-S1-X)p-Fab^2 with Y Gd/DOTA, S1 - (bond), X -Gly-Tyr*-CH2-C(═O)-NH-(CH2O)3-CH2-C(═O)-NH-(CH2)2-Z1(#N)- (Fab, V domains shown)
VH: B4 VH
VL: B4 VL
modifications: labeling may sit on this chain; sites not stated; labeling portion (MW 1149) on amino groups of the Fab, sites and chain not stated; 1-2 per Fab by MS
notes: also called Ex-No 17; conjugate 17
EC50: 0.23 nM

— patent publication US20220096653A1, “CONJUGATE COMPRISING LIGAND AND CEACAM5 ANTIBODY FAB FRAGMENT” (ASTELLAS PHARMA INC., priority 2019, published 2022)
